Assay results: article PMC5674511, “Increase of enzyme activity through specific covalent modification with fragments” (Chemical Science, 2017)

Substrate: CC(=O)N[C@H]1[C@H](Oc2ccc3c(C)cc(=O)oc3c2)O[C@H](CO)[C@@H](O)[C@@H]1O
Test: fluorescence, 4MU release, Michaelis-Menten
Assay type: biochemical, Bacteroides thetaiotaomicron
Settings: unmodified wild-type enzyme
Text: fluorescence, 4MU release, Michaelis-Menten on BtGH84

B1: BtGH84 (Bacteroides thetaiotaomicron VPI-5482) (protein)
chain: QNVSLQPPPQQLIVQNKTIDLPAVYQLNGGEEANPHAVKVLKELLSGKQSSKKGMLISIGEKGDKSVRKYSRQIPDHKEGYYLSVNEKEIVLAGNDERGTYYALQTFAQLLKDGKLPEVEIKDYPSVRYRGVVEGFYGTPWSHQARLSQLKFYGKNKMNTYIYGPKDDPYHSAPNWRLPYPDKEAAQLQELVAVANENEVDFVWAIHPGQDIKWNKEDRDLLLAKFEKMYQLGVRSFAVFFDDISGEGTNPQKQAELLNYIDEKFAQVKPDINQLVMCPTEYNKSWSNPNGNYLTTLGDKLNPSIQIMWTGDRVISDITRDGISWINERIKRPAYIWWNFPVSDYVRDHLLLGPVYGNDTTIAKEMSGFVTNPMEHAESSKIAIYSVASYAWNPAKYDTWQTWKDAIRTILPSAAEELECFAMHNSDLGPNGHGYRREESMDIQPAAERFLKAFKEGKNYDKADFETLQYTFERMKESADILLMNTENKPLIVEITPWVHQFKLTAEMGEEVLKMVEGRNESYFLRKYNHVKALQQQMFYIDQTSNQNPYQPGVKTATRVIKPLIDRTFATVVKFFNQKFNAHLDATTDYMPHKMISNVEQIKNLPLQVKANRVLISPANEVVKWAAGNSVEIELDAIYPGENIQINFGKDAPCTWGRLEISTDGKEWKTVDLKQKESRLSAGLQKAPVKFVRFTNVSDEEQQVYLRQFVLTIEKK
notes: recombinant purified enzyme
- Km: 1460 ± 220 µM
- kcat: 67 ± 5 s⁻¹
- kcat/Km: 46000 ± 5900 M⁻¹ s⁻¹
